Test results reported in paper PMC6193142.

Biological target: fibrillin (of fibrillin microfibrils purified from the ciliary zonule) (bovine (endogenous in ciliary zonule)) (UniProt P98133)
Assay: negative-stain TEM with single-particle 3D reconstruction; microfibrils purified from bovine ciliary zonule; 2797 repeat particles; 2-fold symmetry imposed along the microfibril axis; sub-models of bead, arm and interbead; number of chains judged from volume and from fitting domain models into the interbead density

Substance: fibrillin (of fibrillin microfibrils purified from the ciliary zonule) (from UniProt P98133 25-2871) (natural protein)
- stoichiometry N (molecules per microfibril repeat): 8
